Patent publication US20080063717A1

How the values were obtained:
NKp46 receptor (human) = NKp46 receptor (human) (UniProt O76036); experiment: cell-based or functional assay
[1] = molecular target: human NKp30 receptor (human); experiment: cell-based or functional assay
Sequence of human NKp30 receptor (human) (chain, as listed by the source limits assumed): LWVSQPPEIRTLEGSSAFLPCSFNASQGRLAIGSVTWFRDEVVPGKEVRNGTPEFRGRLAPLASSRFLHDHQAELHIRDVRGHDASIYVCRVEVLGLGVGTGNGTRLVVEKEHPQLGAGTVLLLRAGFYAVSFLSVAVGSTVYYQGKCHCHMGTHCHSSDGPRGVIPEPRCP

Sequence of UniProt O76036 (O76036 22-304): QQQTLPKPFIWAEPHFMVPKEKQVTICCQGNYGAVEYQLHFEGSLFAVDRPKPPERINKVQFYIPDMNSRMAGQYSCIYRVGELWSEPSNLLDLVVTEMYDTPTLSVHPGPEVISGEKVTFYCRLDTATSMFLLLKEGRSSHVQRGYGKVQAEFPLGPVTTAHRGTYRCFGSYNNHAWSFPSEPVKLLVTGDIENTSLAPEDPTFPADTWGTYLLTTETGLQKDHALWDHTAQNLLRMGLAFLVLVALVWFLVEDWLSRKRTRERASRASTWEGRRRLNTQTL

cells remaining with fluorescence intensity equivalent to resting cells (no division), CFSE, day 6 (NKp46 receptor (human)) [%] | cells in the culture at day 6 that underwent more than 5 divisions (CFSE) [1] [%] | cells remaining with fluorescence intensity equivalent to resting cells (no division), CFSE, day 6 [1] [%] | dose to obtain 50% of maximum effect (NK cell proliferation from PBMC, titration of antibody with IL-2 and IL-15, 3 donors) [1] [µg/mL] | plateau of the antibody's effect on NK cell proliferation (titration with IL-2 and IL-15, 3 donors) [1] [µg/mL] | Substance
11 | – | – | – | – | Bab281 (anti-NKp46) monoclonal antibody
– | > 80 | 5 | < 0.1 | 1 | AZ20 (anti-NKp30) monoclonal antibody
